Tests used:
HeLa Kyoto [1] = experiment: solubility in G1/S (NP-40 vs SDS abundance) (log2 ratio); higher = more soluble; conditions: cell cycle stage: G1/S
HeLa Kyoto [2] = experiment: solubility change mitosis vs G1/S (difference of NP-40 vs SDS log2 ratios) (log2 ratio difference); higher = more soluble in mitosis
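For solubility change mitosis vs G1/S (difference of NP-40 vs SDS log2 ratios) in this document: synchronized HeLa Kyoto cells (double thymidine block for G1/S, nocodazole release for mitosis), protein amounts in NP-40 versus SDS lysates quantified by mass spectrometry, three biological replicates.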
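For solubility in G1/S (NP-40 vs SDS abundance) in this document: HeLa Kyoto cells arrested at G1/S by double thymidine block, proteins quantified by TMT10plex mass spectrometry in mild NP-40 versus SDS extracts, three biological replicates.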

| Sequence | solubility in G1/S (log2) (HeLa Kyoto [1]) | solubility change mitosis (log2) (HeLa Kyoto [2]) |
| --- | --- | --- |
| MAAANPWDPASAPNGAGLVLGHFIASGMVNQEMLNMSKKTVSCFVNFTRLQQITNIQAEIYQKNLEIELLKLEKDTADVVHPFFLAQKCHTLQSMNNHLEAVLKEKRSLRQRLLKPMCQENLPIEAVYHRYMVHLLELAVTFIERLETHLETIRNIPHLAANLKKMNQALAKMDILVTETEELAENILKWRKQQNEVSSCIPKILAEESYLYKHDIIMPPLPFTSKVHVQTINAK [HAUS2] | 0.261 | -0.117 |
| MAAAVAAPLAAGGEEAAATTSVPGSPGLPGRRSAERALEEAVATGTLNLSNRRLKHFPRGAARSYDLSDITQADLSRNRFPEVPEAACQLVSLEGLSLYHNCLRCLNPALGNLTALTYLNLSRNQLSLLPPYICQLPLRVLIVSNNKLGALPPDIGTLGSLRQLDVSSNELQSLPSELCGLSSLRDLNVRRNQLSTLPEELGDLPLVRLDFSCNRVSRIPVSFCRLRHLQVILLDSNPLQSPPAQVCLKGKLHIFKYLSTEAGQRGSALGDLAPSRPPSFSPCPAEDLFPGHRYDGGLDSGFHSVDSGSKRWSGNESTDEFSELSFRISELAREPRGPRERKEDGSADGDPVQIDFIDSHVPGEDEERGTVEEQRPPELSPGAGDRERAPSSRREEPAGEERRRPDTLQLWQERERRQQQQSGAWGAPRKDSLLKPGLRAVVGGAAAVSTQAMHNGSPKSSASQAGAAAGQGAPAPAPASQEPLPIAGPATAPAPRPLGSIQRPNSFLFRSSSQSGSGPSSPDSVLRPRRYPQVPDEKDLMTQLRQVLESRLQRPLPEDLAEALASGVILCQLANQLRPRSVPFIHVPSPAVPKLSALKARKNVESFLEACRKMGVPEADLCSPSDLLQGTARGLRTALEAVKRVGGKALPPLWPPSGLGGFVVFYVVLMLLLYVTYTRLLGS [LRCH4] | 0.302 | -0.305 |
| MAAEEVLQTVDHYKTEIERLTKELTETTHEKIQAAEYGLVVLEEKLTLKQQYDELEAEYDSLKQELEQLKEAFGQSFSIHRKVAEDGETREETLLQESASKEAYYLGKILEMQNELKQSRAVVTNVQAENERLTAVVQDLKENNEMVELQRIRMKDEIREYKFREARLLQDYTELEEENITLQKLVSTLKQNQVEYEGLKHEIKRFEEETVLLNSQLEDAIRLKEIAEHQLEEALETLKNEREQKNNLRKELSQYISLNDNHISISVDGLKFAEDGSEPNNDDKMNGHIHGPLVKLNGDYRTPTLRKGESLNPVSDLFSELNISEIQKLKQQLMQVEREKAILLANLQESQTQLEHTKGALTEQHERVHRLTEHVNAMRGLQSSKELKAELDGEKGRDSGEEAHDYEVDINGLEILECKYRVAVTEVIDLKAEIKALKEKYNKSVENYTDEKAKYESKIQMYDEQVTSLEKTTKESGEKMAHMEKELQKMTSIANENHSTLNTAQDELVTFSEELAQLYHHVCLCNNETPNRVMLDYYRQSRVTRSGSLKGPDDPRGLLSPRLARRGVSSPVETRTSSEPVAKESTEASKEPSPTKTPTISPVITAPPSSPVLDTSDIRKEPMNIYNLNAIIRDQIKHLQKAVDRSLQLSRQRAAARELAPMIDKDKEALMEEILKLKSLLSTKREQIATLRAVLKANKQTAEVALANLKNKYENEKAMVTETMTKLRNELKALKEDAATFSSLRAMFATRCDEYVTQLDEMQRQLAAAEDEKKTLNTLLRMAIQQKLALTQRLEDLEFDHEQSRRSKGKLGKSKIGSPKVSGEASVTVPTIDTYLLHSQGPQTPNIRVSSGTQRKRQFSPSLCDQSRPRTSGASYLQNLLRVPPDPTSTESFLLKGPPSMSEFIQGHRLSKEKRLTVAPPDCQQPAASVPPQCSQLAGRQDCPTVSPDTALPEEQPHSSSQCAPLHCLSKPPHP [BICD1] | 0.652 | -0.259 |
| MAAGCCGVKKQKLSSSPPSGSGGGGGASSSSHCSGESQCRAGELGLGGAGTRLNGLGGLTGGGSGSGCTLSPPQGCGGGGGGIALSPPPSCGVGTLLSTPAAATSSSPSSSSAASSSSPGSRKMVVSAEMCCFCFDVLYCHLYGYQQPRTPRFTNEPYPLFVTWKIGRDKRLRGCIGTFSAMNLHSGLREYTLTSALKDSRFPPMTRDELPRLFCSVSLLTNFEDVCDYLDWEVGVHGIRIEFINEKGSKRTATYLPEVAKEQGWDHIQTIDSLLRKGGYKAPITNEFRKTIKLTRYRSEKMTLSYAEYLAHRQHHHFQNGIGHPLPPYNHYS [AMMECR1] | 0.255 | -0.37 |
| MAANSSGQGFQNKNRVAILAELDKEKRKLLMQNQSSTNHPGASIALSRPSLNKDFRDHAEQQHIAAQQKAALQHAHAHSSGYFITQDSAFGNLILPVLPRLDPE [INIP] | -0.135 | 0.407 |
| MAAPCLLRQGRAGALKTMLQEAQVFRGLASTVSLSAESGKSEKGQPQNSKKQSPPKKPAPVPAEPFDNTTYKNLQHHDYSTYTFLDLNLELSKFRMPQPSSGRESPRH [NDUFV3] | 0.224 | -0.0477 |
| MAAQAAAAAQAAAAQAAQAEAADSWYLALLGFAEHFRTSSPPKIRLCVHCLQAVFPFKPPQRIEARTHLQLGSVLYHHTKNSEQARSHLEKAWLISQQIPQFEDVKFEAASLLSELYCQENSVDAAKPLLRKAIQISQQTPYWHCRLLFQLAQLHTLEKDLVSACDLLGVGAEYARVVGSEYTRALFLLSKGMLLLMERKLQEVHPLLTLCGQIVENWQGNPIQKESLRVFFLVLQVTHYLDAGQVKSVKPCLKQLQQCIQTISTLHDDEILPSNPADLFHWLPKEHMCVLVYLVTVMHSMQAGYLEKAQKYTDKALMQLEKLKMLDCSPILSSFQVILLEHIIMCRLVTGHKATALQEISQVCQLCQQSPRLFSNHAAQLHTLLGLYCVSVNCMDNAEAQFTTALRLTNHQELWAFIVTNLASVYIREGNRHQEVLYSLLERINPDHSFPVSSHCLRAAAFYVRGLFSFFQGRYNEAKRFLRETLKMSNAEDLNRLTACSLVLLGHIFYVLGNHRESNNMVVPAMQLASKIPDMSVQLWSSALLRDLNKACGNAMDAHEAAQMHQNFSQQLLQDHIEACSLPEHNLITWTDGPPPVQFQAQNGPNTSLASLL [MAU2] | -0.154 | -0.0035 |
| MAATDIARQVGEGCRTVPLAGHVGFDSLPDQLVNKSVSQGFCFNILCVGETGLGKSTLMDTLFNTKFEGEPATHTQPGVQLQSNTYDLQESNVRLKLTIVSTVGFGDQINKEDSYKPIVEFIDAQFEAYLQEELKIRRVLHTYHDSRIHVCLYFIAPTGHSLKSLDLVTMKKLDSKVNIIPIIAKADAISKSELTKFKIKITSELVSNGVQIYQFPTDDESVAEINGTMNAHLPFAVIGSTEELKIGNKMMRARQYPWGTVQVENEAHCDFVKLREMLIRVNMEDLREQTHTRHYELYRRCKLEEMGFKDTDPDSKPFSLQETYEAKRNEFLGELQKKEEEMRQMFVQRVKEKEAELKEAEKELHEKFDRLKKLHQDEKKKLEDKKKSLDDEVNAFKQRKTAAELLQSQGSQAGGSQTLKRDKEKKNNPWLCTE [SEPT6] | 0.186 | -0.0909 |
| MAATDLERFSNAEPEPRSLSLGGHVGFDSLPDQLVSKSVTQGFSFNILCVGETGIGKSTLMNTLFNTTFETEEASHHEACVRLRPQTYDLQESNVQLKLTIVDAVGFGDQINKDESYRPIVDYIDAQFENYLQEELKIRRSLFDYHDTRIHVCLYFITPTGHSLKSLDLVTMKKLDSKVNIIPIIAKADTISKSELHKFKIKIMGELVSNGVQIYQFPTDDEAVAEINAVMNAHLPFAVVGSTEEVKVGNKLVRARQYPWGVVQVENENHCDFVKLREMLIRVNMEDLREQTHSRHYELYRRCKLEEMGFQDSDGDSQPFSLQETYEAKRKEFLSELQRKEEEMRQMFVNKVKETELELKEKERELHEKFEHLKRVHQEEKRKVEEKRRELEEETNAFNRRKAAVEALQSQALHATSQQPLRKDKDKKNRSDIGAHQPGMSLSSSKVMMTKASVEPLNCSSWWPAIQCCSCLVRDATWREGFL [SEPT8] | -0.0316 | -0.0125 |
| MACSLQKLFAVEEEFEDEDFLSAVEDAENRFTGSLPVNAGRLRPVSSRPQETVQAQSSRLLLLHPTAPSEALGLPDLDLCLPASSTPSADSRPSCIGAAPLRPVSTSSSWIGNQRRVTVTEVLRETARPQSSALHPLLTFESQQQQVGGFEGPEQDEFDKVLASMELEEPGMELECGVSSEAIPILPAQQREGSVLAKKARVVDLSGSCQKGPVPAIHKAGIMSAQDESLDPVIQCRTPRPPLRPGAVGHLPVPTALTVPTQQLHWEVCPQRSPVQALQPLQAARGTIQSSPQNRFPCQPFQSPSSWLSGKAHLPRPRTPNSSCSTPSRTSSGLFPRIPLQPQAPVSSIGSPVGTPKGPQGALQTPIVTNHLVQLVTAASRTPQQPTHPSTRAKTRRFPGPAGILPHQQSGRSLEDIMVSAPQTPTHGALAKFQTEIVASSQASVEEDFGRGPWLTMKSTLGLDERDPSCFLCTYSIVMVLRKQAALKQLPRNKVPNMAVMIKSLTRSTMDASVVFKDPTGEMQGTVHRLLLETCQNELKPGSVLLLKQIGVFSPSLRNHYLNVTPNNLVHIYSPDSGDGSFLKPSQPFPKDSGSFQHDVAAKPEEGFRTAQNLEAEASPEEELPEADDLDGLLSELPEDFFCGTSS [C17ORF53] | 0.384 | 0.0975 |
| MADLHRQLQEYLAQGKAGGPAAAEPLLAAEKAEEPGDRPAEEWLGRAGLRWTWARSPAESAAAGLTCLPSVTRGQRLAAGGGCLLLAALCFGLAALYAPVLLLRARKFALLWSLGSALALAGSALLRGGAACGRLLRCEEAPSRPALLYMAALGATLFAALGLRSTLLTVLGAGAQVAALLAALVGLLPWGGGTALRLALGRLGRGAGLAKVLPV [SFT2D3] | -0.165 | -0.136 |
| MAEGDAGSDQRQNEEIEAMAAIYGEEWCVIDDCAKIFCIRISDDIDDPKWTLCLQVMLPNEYPGTAPPIYQLNAPWLKGQERADLSNSLEEIYIQNIGESILYLWVEKIRDVLIQKSQMTEPGPDVKKKTEEEDVECEDDLILACQPESSLKALDFDISETRTEVEVEELPPIDHGIPITDRRSTFQAHLAPVVCPKQVKMVLSKLYENKKIASATHNIYAYRIYCEDKQTFLQDCEDDGETAAGGRLLHLMEILNVKNVMVVVSRWYGGILLGPDRFKHINNCARNILVEKNYTNSPEESSKALGKNKKVRKDKKRNEH [IMPACT] | 0.0693 | 0.00643 |
| MAEGEGYFAMSEDELACSPYIPLGGDFGGGDFGGGDFGGGDFGGGGSFGGHCLDYCESPTAHCNVLNWEQVQRLDGILSETIPIHGRGNFPTLELQPSLIVKVVRRRLAEKRIGVRDVRLNGSAASHVLHQDSGLGYKDLDLIFCADLRGEGEFQTVKDVVLDCLLDFLPEGVNKEKITPLTLKEAYVQKMVKVCNDSDRWSLISLSNNSGKNVELKFVDSLRRQFEFSVDSFQIKLDSLLLFYECSENPMTETFHPTIIGESVYGDFQEAFDHLCNKIIATRNPEEIRGGGLLKYCNLLVRGFRPASDEIKTLQRYMCSRFFIDFSDIGEQQRKLESYLQNHFVGLEDRKYEYLMTLHGVVNESTVCLMGHERRQTLNLITMLAIRVLADQNVIPNVANVTCYYQPAPYVADANFSNYYIAQVQPVFTCQQQTYSTWLPCN [FAM46A] | -0.00125 | -0.172 |
